Results from patent US20170081400A1 (CEPHALON, published 2017).

T1: human TL1A extracellular domain with N-terminal HIS and FLAG tag (human, UniProt O95150 72-251)
T1 construct: the whole entry is named
T1 sequence: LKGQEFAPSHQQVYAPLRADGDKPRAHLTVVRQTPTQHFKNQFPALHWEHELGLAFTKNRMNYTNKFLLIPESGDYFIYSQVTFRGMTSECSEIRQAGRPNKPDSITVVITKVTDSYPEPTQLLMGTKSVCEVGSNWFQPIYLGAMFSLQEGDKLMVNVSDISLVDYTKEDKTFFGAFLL

B1: 320-379 (antibody, human IgG1, name in Kabat numbering, V domains shown)
VH: QVQLVQSGAEVKKPGASVKVSCKASGYTFTSYDINWVRQAPGQGLEWMGWLNPNSGNTGYAQKFQGRVTMTADRSTSTAYMELSSLRSEDTAVYYCAREVPETAAFEYWGQGTLVTVSS
VL: QSVLTQPPSVSGAPGQRVTISCTSSSSDIGAGLGVHWYQQLPGTAPKLLIEGYYNRPSGVPDRFSGSKSGTSASLTITGLLPEDEGDYYCQSYDGTLSYLFGGGTKLTVLG
notes: human IgG1, lambda
B2: 320-393 (antibody, human IgG1, name in Kabat numbering, V domains shown)
VH: QVQLVQSGAEVKKPGASVKVSCKASKYTFTSYDINWVRQAPGQGLEWMGWLNPNSGNTGYAQKFQGRVTMTADRSTSTAYMELSSLRSEDTAVYYCAREVPETAAFEYWGQGTLVTVSS
VL: QSVLTQPPSVSGAPGQRVTISCTSSSSDIGAGLGVHWYQQLPGTAPKLLIEGYYNRPSGVPDRFSGSKSGTSASLTITGLLPEDEGDYYCQSYDGTLSALFGGGTKLTVLG
notes: human IgG1, lambda
B3: 320-395 (antibody, human IgG1, name in Kabat numbering, V domains shown)
VH: QVQLVQSGAEVKKPGASVKVSCKASWYTFTSYDINWVRQAPGQGLEWMGWLNPNSGNTGYAQKFQGRVTMTADRSTSTAYMELSSLRSEDTAVYYCAREVPETAAFEYWGQGTLVTVSS
VL: QSVLTQPPSVSGAPGQRVTISCTSSSSDIGAGLGVHWYQQLPGTAPKLLIEGYYNRPSGVPDRFSGSKSGTSASLTITGLLPEDEGDYYCQSYDGTLSALFGGGTKLTVLG
notes: human IgG1, lambda
B4: 320-383 (antibody, human IgG1, name in Kabat numbering, V domains shown)
VH: QVQLVQSGAEVKKPGASVKVSCKASGYTFTSYDINWVRQAPGQGLEWMGWLNPNSGNTGYAQKFQGRVTMTADRSTSTAYMELSSLRSEDTAVYYCAREVPETAAFEYWGQGTLVTVSS
VL: QSVLTQPPSVSGAPGQRVTISCTSSSSDIGAGLGVHWYQQLPGTAPKLLIEGYYNRPSGVPDRFSGSKSGTSASLTITGLLPEDEGDYYCQSYDGTLSADFGGGTKLTVLG
notes: human IgG1, lambda
B5: 320-394 (antibody, human IgG1, name in Kabat numbering, V domains shown)
VH: QVQLVQSGAEVKKPGASVKVSCKASLYTFTSYDINWVRQAPGQGLEWMGWLNPNSGNTGYAQKFQGRVTMTADRSTSTAYMELSSLRSEDTAVYYCAREVPETAAFEYWGQGTLVTVSS
VL: QSVLTQPPSVSGAPGQRVTISCTSSSSDIGAGLGVHWYQQLPGTAPKLLIEGYYNRPSGVPDRFSGSKSGTSASLTITGLLPEDEGDYYCQSYDGTLSALFGGGTKLTVLG
notes: human IgG1, lambda
B6: 320-397 (antibody, human IgG1, name in Kabat numbering, V domains shown)
VH: QVQLVQSGAEVKKPGASVKVSCKASGATFTSYDINWVRQAPGQGLEWMGWLNPNSGNTGYAQKFQGRVTMTADRSTSTAYMELSSLRSEDTAVYYCAREVPETAAFEYWGQGTLVTVSS
VL: QSVLTQPPSVSGAPGQRVTISCTSSSSDIGAGLGVHWYQQLPGTAPKLLIEGYYNRPSGVPDRFSGSKSGTSASLTITGLLPEDEGDYYCQSYDGTLSALFGGGTKLTVLG
notes: human IgG1, lambda
B7: 320-396 (antibody, human IgG1, name in Kabat numbering, V domains shown)
VH: QVQLVQSGAEVKKPGASVKVSCKASYYTFTSYDINWVRQAPGQGLEWMGWLNPNSGNTGYAQKFQGRVTMTADRSTSTAYMELSSLRSEDTAVYYCAREVPETAAFEYWGQGTLVTVSS
VL: QSVLTQPPSVSGAPGQRVTISCTSSSSDIGAGLGVHWYQQLPGTAPKLLIEGYYNRPSGVPDRFSGSKSGTSASLTITGLLPEDEGDYYCQSYDGTLSALFGGGTKLTVLG
notes: human IgG1, lambda
B8: 320-391 (antibody, human IgG1, name in Kabat numbering, V domains shown)
VH: QVQLVQSGAEVKKPGASVKVSCKASDYTFTSYDINWVRQAPGQGLEWMGWLNPNSGNTGYAQKFQGRVTMTADRSTSTAYMELSSLRSEDTAVYYCAREVPETAAFEYWGQGTLVTVSS
VL: QSVLTQPPSVSGAPGQRVTISCTSSSSDIGAGLGVHWYQQLPGTAPKLLIEGYYNRPSGVPDRFSGSKSGTSASLTITGLLPEDEGDYYCQSYDGTLSALFGGGTKLTVLG
notes: human IgG1, lambda
B9: 320-392 (antibody, human IgG1, name in Kabat numbering, V domains shown)
VH: QVQLVQSGAEVKKPGASVKVSCKASHYTFTSYDINWVRQAPGQGLEWMGWLNPNSGNTGYAQKFQGRVTMTADRSTSTAYMELSSLRSEDTAVYYCAREVPETAAFEYWGQGTLVTVSS
VL: QSVLTQPPSVSGAPGQRVTISCTSSSSDIGAGLGVHWYQQLPGTAPKLLIEGYYNRPSGVPDRFSGSKSGTSASLTITGLLPEDEGDYYCQSYDGTLSALFGGGTKLTVLG
notes: human IgG1, lambda
B10: 320-389 (antibody, human IgG1, name in Kabat numbering, V domains shown)
VH: QVQLVQSGAEVKKPGASVKVSCKASSYTFTSYDINWVRQAPGQGLEWMGWLNPNSGNTGYAQKFQGRVTMTADRSTSTAYMELSSLRSEDTAVYYCAREVPETAAFEYWGQGTLVTVSS
VL: QSVLTQPPSVSGAPGQRVTISCTSSSSDIGAGLGVHWYQQLPGTAPKLLIEGYYNRPSGVPDRFSGSKSGTSASLTITGLLPEDEGDYYCQSYDGTLSALFGGGTKLTVLG
notes: human IgG1, lambda
B11: 320-388 (antibody, human IgG1, name in Kabat numbering, V domains shown)
VH: QVQLVQSGAEVKKPGASVKVSCKASAYTFTSYDINWVRQAPGQGLEWMGWLNPNSGNTGYAQKFQGRVTMTADRSTSTAYMELSSLRSEDTAVYYCAREVPETAAFEYWGQGTLVTVSS
VL: QSVLTQPPSVSGAPGQRVTISCTSSSSDIGAGLGVHWYQQLPGTAPKLLIEGYYNRPSGVPDRFSGSKSGTSASLTITGLLPEDEGDYYCQSYDGTLSALFGGGTKLTVLG
notes: human IgG1, lambda
B12: 320-387 (antibody, human IgG1, name in Kabat numbering, V domains shown)
VH: QVQLVQSGAEVKKPGASVKVSCKASGYTFTSYDINWVRQAPGQGLEWMGWLNPNSGNTGYAQKFQGRVTMTADRSTSTAYMELSSLRSEDTAVYYCAREVPETAAFEYWGQGTLVTVSS
VL: QSVLTQPPSVSGAPGQRVTISCTSSSSDIGAGLGVHWYQQLPGTAPKLLIEGYYNRPSGVPDRFSGSKSGTSASLTITGLLPEDEGDYYCQSYDGTLSAYFGGGTKLTVLG
notes: human IgG1, lambda
B13: 320-381 (antibody, human IgG1, name in Kabat numbering, V domains shown)
VH: QVQLVQSGAEVKKPGASVKVSCKASGYTFTSYDINWVRQAPGQGLEWMGWLNPNSGNTGYAQKFQGRVTMTADRSTSTAYMELSSLRSEDTAVYYCAREVPETAAFEYWGQGTLVTVSS
VL: QSVLTQPPSVSGAPGQRVTISCTSSSSDIGAGLGVHWYQQLPGTAPKLLIEGYYNRPSGVPDRFSGSKSGTSASLTITGLLPEDEGDYYCQSYDGTLSASFGGGTKLTVLG
notes: human IgG1, lambda
B14: 320-382 (antibody, human IgG1, name in Kabat numbering, V domains shown)
VH: QVQLVQSGAEVKKPGASVKVSCKASGYTFTSYDINWVRQAPGQGLEWMGWLNPNSGNTGYAQKFQGRVTMTADRSTSTAYMELSSLRSEDTAVYYCAREVPETAAFEYWGQGTLVTVSS
VL: QSVLTQPPSVSGAPGQRVTISCTSSSSDIGAGLGVHWYQQLPGTAPKLLIEGYYNRPSGVPDRFSGSKSGTSASLTITGLLPEDEGDYYCQSYDGTLSAQFGGGTKLTVLG
notes: human IgG1, lambda
B15: 320-390 (antibody, human IgG1, name in Kabat numbering, V domains shown)
VH: QVQLVQSGAEVKKPGASVKVSCKASQYTFTSYDINWVRQAPGQGLEWMGWLNPNSGNTGYAQKFQGRVTMTADRSTSTAYMELSSLRSEDTAVYYCAREVPETAAFEYWGQGTLVTVSS
VL: QSVLTQPPSVSGAPGQRVTISCTSSSSDIGAGLGVHWYQQLPGTAPKLLIEGYYNRPSGVPDRFSGSKSGTSASLTITGLLPEDEGDYYCQSYDGTLSALFGGGTKLTVLG
notes: human IgG1, lambda
B16: 320-398 (antibody, human IgG1, name in Kabat numbering, V domains shown)
VH: QVQLVQSGAEVKKPGASVKVSCKASGSTFTSYDINWVRQAPGQGLEWMGWLNPNSGNTGYAQKFQGRVTMTADRSTSTAYMELSSLRSEDTAVYYCAREVPETAAFEYWGQGTLVTVSS
VL: QSVLTQPPSVSGAPGQRVTISCTSSSSDIGAGLGVHWYQQLPGTAPKLLIEGYYNRPSGVPDRFSGSKSGTSASLTITGLLPEDEGDYYCQSYDGTLSALFGGGTKLTVLG
notes: human IgG1, lambda
B17: 320-384 (antibody, human IgG1, name in Kabat numbering, V domains shown)
VH: QVQLVQSGAEVKKPGASVKVSCKASGYTFTSYDINWVRQAPGQGLEWMGWLNPNSGNTGYAQKFQGRVTMTADRSTSTAYMELSSLRSEDTAVYYCAREVPETAAFEYWGQGTLVTVSS
VL: QSVLTQPPSVSGAPGQRVTISCTSSSSDIGAGLGVHWYQQLPGTAPKLLIEGYYNRPSGVPDRFSGSKSGTSASLTITGLLPEDEGDYYCQSYDGTLSAHFGGGTKLTVLG
notes: human IgG1, lambda

How the values were obtained:
[1] = molecular target: T1, human TL1A extracellular domain with …; assay: SPR Run 5, Ab from supernatant captured on Protein A, TL1A 5 ug/mL, timepoint 44
Description: (§1) 1.5. Antibody expression and antigen binding as determined by SPR. Using a CM5 sensor chip (GE Healthcare) Protein A (Pierce) was coupled to the chip surface using an amine coupling kit (GE Healthcare). Protein A was coupled on flow cell 1 and 2 (or alternatively 3 and 4) using a BIACORE® T200. […] The amount of supernatant or purified protein (as well as the concentration) injected during the capture stage varied between runs and is specified in the header of the Tables 3-11. At the end of injection of the supernatant or purified antibody the change in response units was measured. This value was reported as Capture Level in Tables 3-11. […] The response units were measured prior to the end of the dissociation phase. […] The sensorgrams were double referenced (flow cell 2 is subtracted from flow cell 1 and a buffer blank). As there were a large number of antibody variants to screen, these were screened across different runs (Tables 3-11). […] A summary of the conditions used in each run is below:
(§2) 2.1. […] In some experiment the antibodies were purified using Protein A chromatography (See 1.4) and purified antibodies were used in BIACORE® (GE Healthcare) experiments.

[2] = molecular target: T1, human TL1A extracellular domain with …; assay: SPR Run 5, Ab from supernatant captured on Protein A, TL1A 5 ug/mL, timepoint 220
Description: as §1, §2

Row | Binder | TL1A Binding Level (Early) [1] [RU] | TL1A Binding Level (Late) [2] [RU]
1 | B1 | 3 | 1
2 | B2 | 12 | 11
3 | B3 | 13 | 12
4 | B4 | 3 | 1
5 | B5 | 13 | 12
6 | B6 | 12 | 12
7 | B7 | 12 | 11
8 | B8 | 14 | 13
9 | B9 | 12 | 11
10 | B10 | 12 | 11
11 | B11 | 14 | 13
12 | B12 | 11 | 10
13 | B13 | 3 | 1
14 | B14 | 0 | 0
15 | B15 | 12 | 11
16 | B16 | 12 | 11
17 | B17 | 3 | 2
